Measured values reported in paper PMC12693692, “Benzodioxane-benzamides targeting bacterial cell division protein FtsZ potentially disrupt SlmA-mediated nucleoid occlusion and reversible biomolecular condensation” (International journal of biological macromolecules, 2025).

B1: FtsZ (E. coli cell division protein, tubulin-like GTPase) (natural protein, UniProt P0A9A6 1-383, looked up)
chain: MFEPMELTNDAVIKVIGVGGGGGNAVEHMVRERIEGVEFFAVNTDAQALRKTAVGQTIQIGSGITKGLGAGANPEVGRNAADEDRDALRAALEGADMVFIAAGMGGGTGTGAAPVVAEVAKDLGILTVAVVTKPFNFEGKKRMAFAEQGITELSKHVDSLITIPNDKLLKVLGRGISLLDAFGAANDVLKGAVQGIAELITRPGLMNVDFADVRTVMSEMGYAMMGSGVASGEDRAEEAAEMAISSPLLEDIDLSGARGVLVNITAGFDLRLDEFETVGNTIRAFASDNATVVIGTSLDPDMNDELRVTVVATGIGMDKRPEITLVTNKQVQQPVMDRYQQHGMAPLTQEQKPVAKVVNDNAPQTAKEPDYLDIPAFLRKQAD
modifications: tracer fraction only (10-50 nM in 10 uM unlabeled FtsZ): Alexa Fluor 488 succinimidyl ester at the amino groups, 0.4-0.5 mol of dye per mole of protein
notes: FtsZ, E. coli; it is kept as the same molecule; Polymers were triggered with GTP; also called FtsZ-GTP; FtsZ polymers

Experiments:
[1] = biological target: B1; assay: fluorescence polarisation; fluorescence anisotropy binding titration in solution: SlmA (1 uM) and SBS-Fl (10 nM) with increasing concentrations of FtsZ, right after 2 mM GTP; with or without 20 uM FZ95 or FZ100; 25 C; 50 mM Tris-HCl pH 7.5, 300 mM KCl, 5 mM MgCl2; 1:1 model, apparent parameters; details: both partners purified
[2] = biological target: the molecule itself; assay: fluorescence correlation spectroscopy; FtsZ 10 uM (10 nM FtsZ-Alexa 488 as tracer), with 2 mM GTP and regeneration system against no GTP; dilute solution buffer; self-association into polymers

Binder	binding result [1]	binding result [2]
SlmA (E. coli nucleoid occlusion protein), bound to its DNA site SBS (natural protein, UniProt P0C093 1-198, looked up, SlmA, E. coli; the DNA is not a chain; also called SlmA-SBS; SlmA nucleoprotein complexes) MAEKQTAKRNRREEILQSLALMLESSDGSQRITTAKLAASVGVSEAALYRHFPSKTRMFDSLIEFIEDSLITRINLILKDEKDTTARLRLIVLLLLGFGERNPGLTRILTGHALMFEQDRLQGRINQLFERIEAQLRQVLREKRMREGEGYTTDETLLASQILAFCEGMLSRFVRSEFKYRPTDDFDARWPLIAAQLQ	binds	
B1		binds
